{
  "source": "patent US12084522B2",
  "about": "“Peptides, combination of peptides, and cell based medicaments for use in immunotherapy against urinary bladder cancer and other cancers” (Immatics Biotechnologies GmbH, priority 2016, dated 2024)",
  "data": [
    {"molecular_target": "HLA-A*02:01 (Homo sapiens, UniProt P04439, D140Y/D185E/D98H/E176V/E277Q/G131W/G231S/I119V/I121R/I166T/I218V/L300P/L318F/N151K/N90K/P208A/P217A/Q86G/Q94H/R138H/R169H/T345S)", "experiment": "MHC binding assay (UV-ligand exchange, β2m ELISA, peptide exchange yield)", "settings": "binding to HLA-A*02:01 ranged by peptide exchange yield (UV-ligand exchange, β2m ELISA)", "excerpt": "Candidate peptides for T cell based therapies according to the present invention were further tested for their MHC binding capacity (affinity). The individual peptide-MHC complexes were produced by UV-ligand exchange, where a UV-sensitive peptide is cleaved upon UV-irradiation, and exchanged with the peptide of interest as analyzed. Only peptide candidates that can effectively bind and stabilize the peptide-receptive MHC molecules prevent dissociation of the MHC complexes. To determine the yield of the exchange reaction, an ELISA was performed based on the detection of the light chain (β2 m) of stabilized MHC complexes. The assay was performed as generally described in Rodenko et al. (Rodenko et al., 2006).\n96 well MAXISorp plates (NUNC) were coated over night with 2 μg/ml streptavidin in PBS at room temperature, washed 4× and blocked forth at 37° C. in 2% BSA containing blocking buffer. Refolded HLA-A*02:01/MLA-001 monomers served as standards, covering the range of 15-500 ng/ml. Peptide-MHC monomers of the UV-exchange reaction were diluted 100 fold in blocking buffer. Samples were incubated for 1 h at 37° C., washed four times, incubated with 2 ug/ml HRP conjugated anti-β2 m for 1 h at 37° C., washed again and detected with TMB solution that is stopped with […]. Absorption was measured at 450 nm. Candidate peptides that show a high exchange yield (preferably higher than 50%, most preferred higher than 75%) are generally preferred for a generation and production of antibodies or fragments thereof, and/or T cell receptors or fragments thereof, as they show sufficient avidity to the MHC molecules and prevent dissociation of the MHC complexes.", "values": [
      {"substance": "101 (ILDEMRAQL; listed as Homo sapiens) [compound 101]", "Peptide exchange": "+++ (>50 = +++)"},
      {"substance": "49 (SLIGGTNFV; listed as Homo sapiens) [compound 49]", "Peptide exchange": "+++ (>50 = +++)"},
      {"substance": "71 (LLSEDFVSV; listed as Homo sapiens) [compound 71]", "Peptide exchange": "++ (>20% = ++)"},
      {"substance": "130 (TLTSKLYSL; listed as Homo sapiens) [compound 130]", "Peptide exchange": "++++ (>75% = ++++)"},
      {"substance": "143 (TLVTGLASV; listed as Homo sapiens) [compound 143]", "Peptide exchange": "+++ (>50 = +++)"},
      {"substance": "26 (GLALLYSGV; listed as Homo sapiens) [compound 26]", "Peptide exchange": "++++ (>75% = ++++)"},
      {"substance": "7 (QMFEGQILDV; listed as Homo sapiens) [compound 7]", "Peptide exchange": "+++ (>50 = +++)"},
      {"substance": "45 (IIDSSPTAL; listed as Homo sapiens) [compound 45]", "Peptide exchange": "++ (>20% = ++)"},
      {"substance": "123 (NLAGVYSEV; listed as Homo sapiens) [compound 123]", "Peptide exchange": "++++ (>75% = ++++)"},
      {"substance": "140 (ALLDGRVQL; listed as Homo sapiens) [compound 140]", "Peptide exchange": "++++ (>75% = ++++)"},
      {"substance": "105 (TLFPSKIGV; listed as Homo sapiens) [compound 105]", "Peptide exchange": "+++ (>50 = +++)"},
      {"substance": "69 (QIWDKILSV; listed as Homo sapiens) [compound 69]", "Peptide exchange": "+++ (>50 = +++)"},
      {"substance": "77 (KVFGGFQVV; listed as Homo sapiens) [compound 77]", "Peptide exchange": "++++ (>75% = ++++)"},
      {"substance": "112 (YLDPSLNSL; listed as Homo sapiens) [compound 112]", "Peptide exchange": "+++ (>50 = +++)"},
      {"substance": "3 (YLDEIPPKFSM; listed as Homo sapiens) [compound 3]", "Peptide exchange": "++++ (>75% = ++++)"},
      {"substance": "28 (GLIDSLMAYV; listed as Homo sapiens) [compound 28]", "Peptide exchange": "++++ (>75% = ++++)"},
      {"substance": "62 (GQLDFSEFL; listed as Homo sapiens) [compound 62]", "Peptide exchange": "+++ (>50 = +++)"},
      {"substance": "48 (VLMDDTDPLV; listed as Homo sapiens) [compound 48]", "Peptide exchange": "+++ (>50 = +++)"},
      {"substance": "31 (SLFDGIATGL; listed as Homo sapiens) [compound 31]", "Peptide exchange": "++++ (>75% = ++++)"},
      {"substance": "99 (ALIGDDVGL; listed as Homo sapiens) [compound 99]", "Peptide exchange": "+++ (>50 = +++)"},
      {"substance": "129 (YLEPKLTQV; listed as Homo sapiens) [compound 129]", "Peptide exchange": "+++ (>50 = +++)"},
      {"substance": "141 (SMFGAGLTV; listed as Homo sapiens) [compound 141]", "Peptide exchange": "++++ (>75% = ++++)"},
      {"substance": "73 (VLKVFLENV; listed as Homo sapiens) [compound 73]", "Peptide exchange": "++++ (>75% = ++++)"},
      {"substance": "110 (VLFNIDGQGNHV; listed as Homo sapiens) [compound 110]", "Peptide exchange": "+++ (>50 = +++)"},
      {"substance": "103 (GLYSGEVLV; listed as Homo sapiens) [compound 103]", "Peptide exchange": "++++ (>75% = ++++)"},
      {"substance": "35 (KLPEPPPLA; listed as Homo sapiens) [compound 35]", "Peptide exchange": "+++ (>50 = +++)"},
      {"substance": "131 (ILTSIQSLL; listed as Homo sapiens) [compound 131]", "Peptide exchange": "++++ (>75% = ++++)"},
      {"substance": "97 (TVGPGLLGV; listed as Homo sapiens) [compound 97]", "Peptide exchange": "+++ (>50 = +++)"},
      {"substance": "38 (TLTSIIVAV; listed as Homo sapiens) [compound 38]", "Peptide exchange": "+++ (>50 = +++)"},
      {"substance": "139 (LLYPTEITV; listed as Homo sapiens) [compound 139]", "Peptide exchange": "+++ (>50 = +++)"},
      {"substance": "90 (GMTELYFQL; listed as Homo sapiens) [compound 90]", "Peptide exchange": "+++ (>50 = +++)"},
      {"substance": "124 (QIDGTLSTI; listed as Homo sapiens) [compound 124]", "Peptide exchange": "+++ (>50 = +++)"},
      {"substance": "136 (GLSEPIFQL; listed as Homo sapiens) [compound 136]", "Peptide exchange": "+++ (>50 = +++)"},
      {"substance": "133 (GLDPLGYEIQL; listed as Homo sapiens) [compound 133]", "Peptide exchange": "++++ (>75% = ++++)"},
      {"substance": "55 (KLLETKWTL; listed as Homo sapiens) [compound 55]", "Peptide exchange": "++++ (>75% = ++++)"},
      {"substance": "63 (LLAGLLVGV; listed as Homo sapiens) [compound 63]", "Peptide exchange": "+++ (>50 = +++)"},
      {"substance": "128 (KLWGQSIQL; listed as Homo sapiens) [compound 128]", "Peptide exchange": "++++ (>75% = ++++)"},
      {"substance": "98 (YLIGLDPENLAL; listed as Homo sapiens) [compound 98]", "Peptide exchange": "+++ (>50 = +++)"},
      {"substance": "122 (ILEPSLYTV; listed as Homo sapiens) [compound 122]", "Peptide exchange": "++++ (>75% = ++++)"},
      {"substance": "68 (TMIVSLAAV; listed as Homo sapiens) [compound 68]", "Peptide exchange": "+++ (>50 = +++)"},
      {"substance": "18 (SIAAYNPVV; listed as Homo sapiens) [compound 18]", "Peptide exchange": "++++ (>75% = ++++)"},
      {"substance": "65 (IITDLLRSV; listed as Homo sapiens) [compound 65]", "Peptide exchange": "++++ (>75% = ++++)"},
      {"substance": "127 (KLNATNIEL; listed as Homo sapiens) [compound 127]", "Peptide exchange": "+++ (>50 = +++)"}
    ]}
  ]
}
